The values below come from patent US20240409618A1.

In the assay the target is SARS-CoV-2 spike protein (isolate USA-WA1/2020) on pseudotyped virus (SARS-CoV-2 (USA-WA1/2020)) (UniProt P0DTC2). Briefly: cell-based or functional assay.

The substance DMAb 2130_FcTM (antibody) returned a serum potency (IC50), neutralization of WA1/2020 pseudovirus of 1 to 2 ng/mL.
